Measured values reported in paper PMC10184318, “The fission yeast cytokinetic ring component Fic1 promotes septum formation” (Biology Open, 2023).

Target: T1, Fic1-MBP (S. pombe, UniProt O94701 1-272)
T1 construct: Fic1 of S. pombe; The printed name puts MBP after Fic1; source: E. coli, purified (standard biochemistry techniques)
T1 sequence (looked up): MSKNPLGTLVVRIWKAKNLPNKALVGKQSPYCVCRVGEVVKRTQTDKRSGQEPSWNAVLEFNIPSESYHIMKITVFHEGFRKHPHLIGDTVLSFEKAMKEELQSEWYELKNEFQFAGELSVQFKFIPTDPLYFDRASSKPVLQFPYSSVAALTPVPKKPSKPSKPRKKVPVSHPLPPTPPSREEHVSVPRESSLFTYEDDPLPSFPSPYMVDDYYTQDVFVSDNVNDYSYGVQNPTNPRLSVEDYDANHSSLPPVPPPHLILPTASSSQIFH
Test: pull-down; in vitro binding assay with recombinant proteins, one bead-bound and one soluble; 20 mM Tris pH 7.4, 150 mM NaCl; 4°C, 1 h; three washes; SDS-PAGE and Coomassie staining
Settings: both partners purified

B1: Cyk3-SH3-GST (aa1-66) (domain or fragment, S. pombe, UniProt O14302 1-66, looked up)
chain: MSIPKQLPCMVRALYAWPGEREGDLKFTEGDLIECLSIGDGKWWIGRHINTNTQGIFPSNFVHCLD
notes: Cyk3 of S. pombe, SH3 domain, residues 1-66; The printed name puts GST after the SH3 domain (Cyk3-SH3-GST, against GST-Cdc15-SH3), which hints at a C-terminal GST; also called Cyk3's SH3 domain; source: E. coli, purified (standard biochemistry techniques)
B1: binds.
